Results published in the Immune Epitope Database (IEDB).

Experiments:
Assay in all cases: IEDB peptide-MHC binding, purified MHC/competitive/radioactivity; filed as Kd, often an IC50 or EC50 that approximates it; ≥ and ≤ were set here for values at or beyond the usual limits of such assays
[1] = target: HLA-B*51:01; settings: source organism: Dengue virus 1 Singapore/S275/1990
[2] = target: HLA-B*35:01; settings: source organism: Dengue virus 1 Singapore/S275/1990
[3] = target: HLA-B*53:01; settings: source organism: Dengue virus 1 Singapore/S275/1990
[4] = target: HLA-A*30:02
[5] = target: HLA-A*01:01
[6] = target: HLA-A*24:02
[7] = target: HLA-A*26:01
[8] = target: HLA-A*23:01
[9] = target: HLA-A*29:02
[10] = target: HLA-A*30:01
[11] = target: HLA-A*32:01
[12] = source organism: Mammarenavirus machupoense
[13] = source organism: Dengue virus 3 Singapore/8120/1995
[14] = source organism: Mammarenavirus guanaritoense
[15] = source organism: SARS coronavirus Tor2
[16] = source organism: Mammarenavirus brazilense
[17] = source organism: Mammarenavirus lassaense
[18] = source organism: Dengue virus 1 Brazil/97-11/1997
[19] = source organism: Mammarenavirus juninense

LPVLLGSLGC
Kd [1]: ≥ 20.1 µM | Kd [2]: 2.03 µM | Kd [3]: 0.199 µM

LSSSEPHCA
Kd [4, 12]: 2.35 µM | Kd [5, 12]: 4.19 µM | Kd [6, 12]: ≥ 77.5 µM | Kd [7, 12]: ≥ 77.9 µM | Kd [8, 12]: ≥ 60.9 µM | Kd [9, 12]: ≥ 78.9 µM

LWMADVPLQW
Kd [6, 13]: 0.0243 µM | Kd [8, 13]: 0.0397 µM

LWPFIRINNL
Kd [6, 14]: 0.453 µM | Kd [8, 14]: 0.117 µM | Kd [9, 14]: 1.64 µM

LYLYALIYFL
Kd [4, 15]: 6.96 µM | Kd [5, 15]: 4.27 µM | Kd [6, 15]: 0.299 µM | Kd [7, 15]: 2.46 µM | Kd [8, 15]: 0.022 µM | Kd [9, 15]: 3 µM

LYYPSARIVY
Kd [4, 15]: 0.0718 µM | Kd [5, 15]: ≥ 37.8 µM | Kd [6, 15]: 2.02 µM | Kd [7, 15]: 7.36 µM | Kd [8, 15]: 1.91 µM | Kd [9, 15]: 0.0146 µM

MYLKLRSETL
Kd [4, 15]: 18.2 µM | Kd [5, 15]: 7.22 µM | Kd [6, 15]: 0.164 µM | Kd [7, 15]: 7.59 µM | Kd [8, 15]: 0.0445 µM | Kd [9, 15]: 17.7 µM

NYPYLFEEHL
Kd [6, 16]: 0.979 µM | Kd [8, 16]: 0.824 µM | Kd [9, 16]: ≥ 71.4 µM

QWNLVIGFLF
Kd [4, 15]: ≥ 26.3 µM | Kd [5, 15]: ≥ 30.6 µM | Kd [6, 15]: 0.00564 µM | Kd [7, 15]: ≥ 69.7 µM | Kd [8, 15]: 0.00214 µM | Kd [9, 15]: 0.0395 µM

QYNLSHSYAV
Kd [4, 17]: 3.33 µM | Kd [5, 17]: ≥ 70.4 µM | Kd [6, 17]: 1.95 µM | Kd [7, 17]: ≥ 69.7 µM | Kd [8, 17]: 0.346 µM | Kd [9, 17]: 1.3 µM

RVGLYGLLFY
Kd [10, 14]: 4.05 µM | Kd [11, 14]: 2.34 µM | Kd [4, 14]: 0.0366 µM | Kd [5, 14]: 17.4 µM | Kd [7, 14]: ≥ 69.7 µM | Kd [9, 14]: 0.0484 µM

SYEHQTPFEI
Kd [4, 15]: 7.06 µM | Kd [5, 15]: 3.68 µM | Kd [6, 15]: 1.24 µM | Kd [7, 15]: 10.4 µM | Kd [8, 15]: 0.945 µM | Kd [9, 15]: 7.16 µM

SYKVASEGF
Kd [6, 18]: 0.209 µM | Kd [8, 18]: 0.626 µM

TCDWTNAGDY
Kd [4, 15]: 0.672 µM | Kd [5, 15]: 0.133 µM | Kd [6, 15]: ≥ 70.3 µM | Kd [7, 15]: ≥ 25 µM | Kd [8, 15]: ≥ 70 µM | Kd [9, 15]: 2.02 µM

VAHSSLYGRY
Kd [10, 19]: 8.96 µM | Kd [11, 19]: ≥ 69.9 µM | Kd [4, 19]: 0.00586 µM | Kd [5, 19]: 5.8 µM | Kd [7, 19]: 11.7 µM | Kd [9, 19]: 0.349 µM
